Columns and labels:
chicken lysozyme [1] = target: T1, chicken lysozyme (chicken, UniProt P00698 19-147); assay: ELISA, lysozyme-coated well (100 µg/ml), ~50 ng iMab per well, anti-VSV-HRP; urea-purified
T1 construct: Coated on ELISA plates (100 µg/ml) or immobilized on / passed over Eupergit columns
Protocol: (§1) The microtiter plate was excessively washed with PBS (3 times), PBS+0.1% Tween-20 (3 times) and PBS (3 times).
(§2) After excessive washing using PBS (3 times), PBS+0.1% Tween-20 (3 times) and PBS (3 times), wells were incubated with 100 μl Turbo-TMB for 5 minutes. Reaction was stopped with 100 μl 2M H₂SO₄ and absorbtion was read at 450 nm using a microtiter plate reader (Biorad).

chicken lysozyme [2] = target: T1, chicken lysozyme; assay: ELISA on lysozyme, 100-fold dilution of the protein extract
Protocol: as §1, §2

chicken lysozyme [3] = target: T1, chicken lysozyme; assay: ELISA

T1 sequence (P00698 19-147 limits assumed): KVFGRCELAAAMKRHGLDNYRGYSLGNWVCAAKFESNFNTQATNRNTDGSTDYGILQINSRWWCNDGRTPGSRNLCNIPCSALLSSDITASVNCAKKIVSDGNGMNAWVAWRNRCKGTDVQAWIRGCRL

Binder	Absorbtion (450 nm) (chicken lysozyme [1]) [A450]	ELISA signal over background signal (fold) (chicken lysozyme [2])	binding result (chicken lysozyme [3])
iMab1602 (designed binder, not shown: C-terminal linker, VSV-tag and 6xHis-tag from vector CM126) AVKPVIGSKAPNFGENGDVKTIDRASGYTIGPTCGGVFFQGPTDDSTNVATINMGGGITYYGDSVKETFDIRRDNAKSTRTESYDDNQPEGLTEVKCAADSTIYASYYECGHGLSTGGYGYDVSSRLYGYDILVGTQ	0.357	–	–
iMab122 (designed binder, not shown: C-terminal linker, VSV-tag and 6xHis-tag from vector CM126) NVKLVEKGGNFVENDDDLKLTCRASGRTFSSRTMGWFRQAPNDDSTNVATIRWNGGSTYYTNYGDSVKERFDIRVDQASNTVTLSMDDLQPEDSAEYNCAGTDIGDGWSGRYDYRGQGTDVTVSS	0.271	–	–
iMab1300 (designed binder, not shown: C-terminal linker, VSV-tag and 6xHis-tag from vector CM126) LQVDIKPSQGEISVGESKFFLCQASGYTIGPCISWFSPNGEKLNMGSSTLTIYNANIDDAGIYKCAADSTIYASYYECGHGLSTGGYGYQSEATVNVKIFQ	0.325	–	–
iMab1202 (designed binder, also called iMab1202 (1EJ6); not shown: C-terminal linker, VSV-tag and 6xHis-tag from vector CM126) IVKLVMEKRGNFENGQDCKLTIRASGYTIGPACDGFFCQFPSDDSFSTEDNMGGGITVNDAMKPQFDIRRDNAKGTWTLSMDFQPEGIYEMQCAADSTIYASYYECGHGLSTGGYGYDNPVRLGGFDVDVPDV	0.317	–	–
iMab1302 (designed binder, not shown: C-terminal linker, VSV-tag and 6xHis-tag from vector CM126) VVKVVIKPSQNFIENGEDKKFTCRASGYTIGPKCIGWFSQNPEDDSTNVATINMGGGITYYGDSVKERFDIRRDNAKDTSTLSIDDAQPEDAGIYKCAADSTIYASYYECGHGLSTGGYGYDSEATVGVDIFVKLM	0.345	–	–
iMab111 (designed binder, not shown: C-terminal linker, VSV-tag and 6xHis-tag from vector CM126) NVKLVCKGGNFVENDDDLKLTCRAEGYTIGPYCMGWFRQAPNDDSTNVATINMGGGITYYGDSVKERFDIRRDNASNTVTLSMDDLQPEDSAEYNCAGDSTIYASYYECGHGLSTGGYGYDSHYRCQGTDVTVSS	0.42	~20	–
iMab115 (designed binder, Expressed in E. coli (21 kD); also called iMab without glycosylation site) NVKLVEKGGNFVENDDDLKLTCRAEGYTIGPYCMGWFRQAPNDDSTNVATINMGGGITYYGDSVKERFDIRRDQASNTVTLSMDDLQPEDSAEYNCAGDSTIYASYYECGHGLSTGGYGYDSHYRGQGTDVTVSS	–	–	binds

Reference: patent US20060292634A1 (CATCHMABS B V, published 2006)
